In the nanobody polyreactivity screen of Harvey et al. (2022):

Assay: yeast display, Sf9 membrane polyspecificity reagent, FACS + sequencing; frameworks hold sequencing errors
Method in brief: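 Synthetic nanobody libraries on Saccharomyces cerevisiae BJ5465 were galactose-induced for 36–48 hours, stained 1 hour at 4 °C with 10% biotinylated, detergent-solubilized Sf9 membrane reagent and enriched on streptavidin microbeads. FACS then separated cells into low and high (top ~1%) gates by anti-HA (expression) and streptavidin (reagent binding) fluorescence. Genes were colony-PCR amplified, MiSeq 2 × 250 sequenced and CDR-length filtered. A clone's polyreactivity label is that of its gate of origin.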

| Sequence | polyreactivity (PSR sort gate) |
| --- | --- |
| QVHLVESGGCLVQAGGSLRLSCAASGRTFDFYAMGWYRQAPGKERELVATITSGTSTNYADSVKGRFTISRDNAKNTVYLQMYRLKPEDTAVYYCNAGGVYPRCTFLEQGYEMDYWGQGTQVTVSS | low polyreactivity |
| QVQLVESGGGLVQAGGSLRLSCAASGFIFDQNAMGWYRQAPGKERELVAAISKRGGSTYYADSVKGRFTISRDTAKNTVYLQMNSLKPEDTAVYYCATRSWGPYYYGYNHWGQGTQVTVSS | high polyreactivity |
| QFQLVESGGGLVQAGGSLRLSSAASGFIIRYYAMGWYRQAPGKERELVAAISASGGSTYYADSVKGRFTISRDNAKNTVYLQMNSLKPEDTAVYYCAARYWLREDYWGQGTQVTVSS | high polyreactivity |
| QVQLVESGGGLVQAGGCLRLSCAASGSTFYGYAMGWYRQAPGKERELVAAISRIGSSTYYADSVKGRFTISRDNAKITVYLQMNSLKPEDTAVYYCAADTWKVFGVDYWGQGTQVSVSS | high polyreactivity |
| QVQLVESGGGLVQAGGSLRLSCAASGRNFRYNAMGWYRQAPGKERELVAAISSGDRTNYADSVKGRFTISRDNAKNTVYLQKKSLKPVDTAVYYCAAPTDSYYEFDYWGQGTQGTVSS | low polyreactivity |
| QVQLVESGGGLVQAGGSLRLSCAASGFTFYYNAMGWYRQAPGKERELVASISSNGTSTYYADSVKGRFTISRDNAMYTVYLQMNSLKPEDTAGYYCAADDVCVYWSSTHNWARGDYWGQGSQVTVSS | low polyreactivity |
| QVKLVESGGGLVQAGGSLRLSCAPSGFTFFTYAMGWYRQAPGKERVLVAAITSGGSTNYADSVKGRFTISRDNAKNTVDLQMNSLKPEDTAVYYCAKLAYSDATTVYGYQRSDYWGQGTQVTVSS | low polyreactivity |
| QVQLVESGGGLVQAGGSLRLSCAASGSIFGVNVMGWYRQAPGKERELVASISGGGSTDYADSVKGRFTISRDNAKNTVYLQMNSLKPEDTAVYYCNAKYWWSNYYWGQGTQVTVSS | low polyreactivity |
| QVQLVESGGGLVQAGGSLRLSCAASGTFFIYAMGWYRQAPGKERELVATISSGGSTNYADSVKGRFTISRDNAKNTVYLQMNSLKPEDTAVYYCAAEWLYPHDGGYPRPMDYWGQGTQVTVSS | low polyreactivity |
| QVQLVESGGGLVQARGSLRLSCAASGFIFGYYAKGWYRQAPGKERELVAAISPSGGRTYYADSVKGRFTISRDNAKNTVYLQMNILKPEDTAVYYCAAEYAYSLDPVEDYWGQGTLVTVSS | high polyreactivity |
| QVQLVESGGGLVQAGGSLRLSCAASGRTLNVYAMGWYRQAPGKDREFVAAITVSGGNTYADSVKGRFTISRDNAKNTVYLQMNSLKPEDTAVYYCAVDRFSYSRRYDYWGQGTQVTVSS | high polyreactivity |
| QVQLLESRGGLVQAGGSLRLSCAASGRNFGRYTMGWYRQAPGKERELVAAISARGGSTYYADSVKGRFTISRDNAKNTVYLQMNSLKPEDTAVYYCNTVRVHGFPIDRIYDYWGQGTQVTVSS | high polyreactivity |
| QDQLVESGGWLVQAGGTLRLSCAASGRILWFYAMGWYRQAPGKERELVASISGSGGSTFYADSVKGRFTISRDNAKNTVYLQMNRLKPEDTAVYYCAAYKEPYYEEYGYWGQGTQVTVSS | low polyreactivity |
| QVQLVESGGGLVQAGGSLRLSCAASGRIFYVYAMGWYRQAPGKERELVAAINWRGGSTYYADSVKGRFPISRDNAKNTVYLQMNSLKPEDTAVYYCAARWYLYDYWGQGTQVTVSS | low polyreactivity |
| QVQLVESGGGLVQAGGSLRLSCAASGFIFRYNAMAWYRQAPGKERELVAAIDSGGSTYYADSVKGRFTISRDNAKNTVYLQMNSMKPEDNAVYYCNAVVEASYPCVDYWGQGTQVTVSS | low polyreactivity |
| QVQLVESGGGLVQAGGSLRLSCAASGSTFSDNAMGWSRQAPGKERELVATIDYDGSTYYADSVKGRFTISRDNAKNTVYLQMNSLRTEDTAVYYCAADVYQVPGPYWSRTYEYDYWGQGTQVTVSS | low polyreactivity |
| QVQLVESGGGIVQAGGSLRLSCAASGRIFWDYAMGWYRQAPGKERELVDVITLSGDSTYYADSVKGRFTISRDNAKNTVYLQMNSLKPEDTAVYYCAAARAIRQFWYVATFEYWGQGTQVTVSS | low polyreactivity |
| QVQLVESGGGLVQAGGSLRLSCAASGRIFDIYDMGWYIQAPGKERELVAAITSGGNTYYADSVKWRFTISRDNAKNTVYLQMNSLKPEDTAVYYCNAARETRPRDYYWGQGTQVTVSS | low polyreactivity |
| QVQLVESGGGLVQAGGSLRLSCAAYGSTFRTNAMGWYRQAPGKERELVAAISQRGGSTYYADSVKGRFTISRDNAKNTVYLQMNSLKPEDTGVYYCAARRYAYQSGGTLLTDDYWGQGTQVTVSS | high polyreactivity |
| QVQLVESGGGLVHAGGSLRLSCAASGRTFYPNVMGWYRQAPGKERELVAAIRARGGSTYYADSVKGRFTISRDNAKNTVYLQMNSLKPEDTAVYYCARDTGDYLQFDYWGQGTQVTVSS | high polyreactivity |
| QVQLVESGGGLVQAGGSLRLSCAASGRILGYYGMGWYIQAPGKERELVAAITSGGGSTYYADSVKGRFTISRDNAKNTVYLQMNSLKPEDTAVYYCNAVPSQHDEFDYWGQGTQVTVSS | low polyreactivity |
| QVQLVESVGGLVQAGGSLRLSCAASGRTFLNYAMGWYRQAPGKEREFVAAITWRVGTTYYADSVKGRFTISRDNAKNTVYLQMNSLKPEDTAVYYCNAVTARQSSQGEMDYWGQGTQVTVSS | high polyreactivity |

| Sequence | polyreactivity (PSR sort gate) |
| --- | --- |
| QVQLVESGGGLVQAGGSLRLSCAASGRIFRYYPMGWYRQATGKERELVAAITASGGSTYYADSVKGRFTISRDNAKNTVYLQMNSLKPEDTAVYYCAARVAQVAYPDGYWGQGTQVTVSS | high polyreactivity |
| QVQLVESGGGLVQAGGSLRLSCAASGSIFYWYAMGWYRQAPGKERELVAAISGSGGTTYYADSVKGRFTISRDNAKNTVYLQMNSLKPEDTAVYYCATRGWYLGSRGYRTRYGYWGQGTQVTVSS | high polyreactivity |
| QVQLVESGGGLVQAGGSLRLSCAASGFIFGWYTMGWYRQAPGKERELVASISRSGGSTYYAESVKARFTISRDNEKNSVYLQMNSQKPEDNPVYYCAKRSLVDAHGYWGQGTQVTVSS | high polyreactivity |
| QVQLVESGGVLVQAGGSLRLSCAASGRIFGENAMGWYRQAPGKEREFVAVISISDASTYYADSVKGRFTISRDNAKNTVYLQMNSLKPEDTAVYYCADDLTDFLYVASDYWGQGTQVTVSS | low polyreactivity |
| QVQLVESGGGLVQAGGSLRLSCAASGSTFVRYSMGWYRQAPGKERDLVAAITSSGGSTYYADSVKGRFTISRDNAKNSVYFQMNSLKPEDTAVYDFAAARYPYRYIYNYWGQGTQVTVSS | high polyreactivity |
| QVQLEESGGGLVQAGGSLRLSCAASGLTFVYNAMGWYRQAPGKERELVAAISRVGSTNYADSVKGRFTISRDNAKNTVYLQMNSLKPEDTAVYYCNAERSRRYSGWVNYAPLNYWGQGTQVTVSS | low polyreactivity |
| QVQLVESGGGLVQAGGSLRLSCAASGLIFGWNAMGWYRQAPGKERELVAAITWNGGSTYYADSVKGRFTISRDNAKITVSLQMNSLKPEDTAVYYCAARVGWNIRGYDYWGQGTQVTVSS | low polyreactivity |
| QVHLVESGGGLVQAGGSLRLSCAASGSTFPVNAMGWYRQAPGKERELVAAIRSSTGRTYYADSVKGRFTISRDNAKNSVYLQMNSLKPEDTAVYNFAAEGDYYDFISPPLDYWGQGTQVTVSS | low polyreactivity |
| QVQLVESGGGLVQAGGSLRLSCAASGRIFISYTMGLYRHAPGKERELVAGIDSSGTSTYYADSVKGRFTISRDNAKNTVYLQMNRLKPEDTAVYYCIVVANWKDTSTELDYWGQGTQVTVSS | low polyreactivity |
| QVQLVESGGGLVQAGGSLRLSCAASGRIFYYNPMGWYRQAPGKERELVAAITKSGGRTYYADSVKGRFTISRDNSKNTVYLQMYSLKPEDTAVYYCAALSRAGEYDYWGQGTQVTVSS | high polyreactivity |
| QVQLVDSGGGLVQAGGSLRLSCAASGSILVYYAMGWYRQAPGKERELVAAISSGGSTNYADSVKGRFTISRDNANNTVYLKINSLKPEDTAVYYCAKPDRTGWLEGDYWGQGTQVSVSS | low polyreactivity |
| QVQLVESGGGLVQAGGSLRLSCAASGSLFYPYAMGWYRQAPGKERELVAAIDLSGGSTYYADAVKGRFTISRDNAKNTVYLQMNSLKPEDTAVYYCAADYGYTYAYDYWGQGTQVTVSS | low polyreactivity |
| QVQLVESGGGLVQAGGSLRLSCAASGSTFYHYAMGWYRQAPGKERELVAAISTSGGRTYYADSVKGRFTISRDNAKNTVYLQMNSLKPEDTAVYYCAARSYRYYYGFDYWGQGTQVTVSS | low polyreactivity |
| QVQLVESGGGLVQAGGSLRLSCAASGIIFEGNVMGWYRQAPGKERELVAAITSDTSTNYADSVKGRFTISRDNAKNTVYLQMNSLKPEDTAVYYCNAVIGTDYYYSGTAEFYYWGQGTQVTVSS | low polyreactivity |
| QVQLVESGGGLVQAGGSLRLSCAASGSIFAAYTMGWYRQAPGKERELVAAISVSTVSTYYADSVKGRFTISRDNAKNTVYIQMNSLKPEDTAVYYCNADATDSYPEKDEHDSWGQGTQVTVSS | low polyreactivity |
| QVQLVESVVGLVQAGGSLRLSCASSGSTFGANAMGRYRQAPGKEREFLAAISRSGVRTYYADSVKGRFTISRDNAKKTVYLQMNSLKPEDTAVYYCAADGYWWTYTRYDYWGQGTQVTVSS | low polyreactivity |
| QVQLVESGGGLVQAGGSLRLSCAASGFIFVTYAMGWYRQAPGKERELVAAITNSGGTTYYADSVKGRFTISRDNAKNTVYLQMISLKPEDSAVYYCNKPYGAETAHREFDYWGQGTQVTVSS | low polyreactivity |
| QVQLVESGGGLVQAGGSLRLSCAASGSTFVRYAMGGYRQAPGKERELVAAISWSGASTYYADSVKGRFTISRDNAKNTVYLQMNSLKPEDTAVYYCAARSRWYDAAGYPKYYYWGQGTQVTVSS | high polyreactivity |
| QVQLVESGGGLVQAGGSLRLSCASSGRTFSYYALGWSRQAPGKERELVAAITSGGSTYYADSVKGRFTISRDNAKNTVYLQMNSLKPEDTAVYYCAADPGDDYWGQGTQVTVSS | low polyreactivity |
| QVQLVESGGGLVQAGGSLRLSCAASGTFYGYAMGGYRQSPGKERELVAAITWSGGSTYYADSVKGRFTISRDNAKNTVYLQMNSLKPEDTAVYYCAASLYSGYDSWGQGTQVTVSS | low polyreactivity |
| QVQLVESGGGLVQAGGSHRLRCAASGITLLLNAMGWYRQAPGKERELVAAISEGGGSTYYAHSVKGRFTISRDNAKNTVYLQMNSLKPEDTAVYYCNADRVYRVPSEYDSWGQGTQVTVSS | low polyreactivity |
